Results as given in the supplement of paper PMC7125110.
± gives the standard error. Fewer inactive variants are shown than the library holds.

B1: glmS ribozyme (parent)
chain: AUAAAAGCGCCAGAACUACAGAAAUGUAGUUGACGAGGAGGAGGUUUAUCGAAUUUUCGGCGGAUGCCUCCAAA

Assays:
Conditions in all cases: with glucosamine-6-phosphate
glucosamine-6-phosphate [1] = variants of: B1; assay: self-cleavage kobs at 40 uM GlcN6P; higher = faster cleavage; RNA array
Method in brief: (§1)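 Tiles bearing barcoded ribozyme variants, transcribed in situ by E. coli RNA polymerase on sequenced MiSeq chips, were imaged over ~14 h at 37 °C using a hybridised Cy3 probe. Glucosamine-6-phosphate was supplied at 40 μM to 10 mM in HEPES/KCl/Mg(OAc)2 buffer. kobs came from one- or two-exponential decay fits to normalised per-tile medians, and weighted Michaelis–Menten fits then provided kcat and KM.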

glucosamine-6-phosphate [2] = variants of: B1; assay: self-cleavage kobs at 160 uM GlcN6P; higher = faster cleavage; RNA array
Method in brief: as §1

glucosamine-6-phosphate [3] = variants of: B1; assay: self-cleavage kobs at 640 uM GlcN6P; higher = faster cleavage; RNA array
Method in brief: as §1

glucosamine-6-phosphate [4] = variants of: B1; assay: self-cleavage kobs at 2500 uM GlcN6P; higher = faster cleavage; RNA array
Method in brief: as §1

glucosamine-6-phosphate [5] = variants of: B1; assay: self-cleavage kobs at 10000 uM GlcN6P; higher = faster cleavage; RNA array
Method in brief: as §1

Row | Variant | self-cleavage kobs at 40 uM GlcN6P (glucosamine-6-phosphate [1]) | self-cleavage kobs at 160 uM GlcN6P (glucosamine-6-phosphate [2]) | self-cleavage kobs at 640 uM GlcN6P (glucosamine-6-phosphate [3]) | self-cleavage kobs at 2500 uM GlcN6P (glucosamine-6-phosphate [4]) | self-cleavage kobs at 10000 uM GlcN6P (glucosamine-6-phosphate [5])
1 | C34U U57C | < 1e-05 s⁻¹ | < 1e-05 s⁻¹ | < 1e-05 s⁻¹ | < 1e-05 s⁻¹ | < 1e-05 s⁻¹
2 | U46G G51C C67G | < 1e-05 s⁻¹ |  |  |  | 
3 | G41C U45G U57C G59A C61U | < 1e-05 s⁻¹ |  | < 1e-05 s⁻¹ | < 1e-05 s⁻¹ | 
4 | G43A C61A | < 1e-05 s⁻¹ | < 1e-05 s⁻¹ | < 1e-05 s⁻¹ |  | 
5 | G9A C16G | < 1e-05 s⁻¹ | < 1e-05 s⁻¹ | < 1e-05 s⁻¹ | < 1e-05 s⁻¹ | 
6 | G29A U47G | 2.24e-05 ± 1.1e-05 s⁻¹ |  | 0.000161 ± 6.4e-05 s⁻¹ |  | 0.000713 ± 0.00011 s⁻¹
7 | C16U A33U C50G A64U U69A | 0.000139 ± 2.3e-05 s⁻¹ |  |  |  | 0.000172 ± 3.4e-05 s⁻¹
8 | C10A C34G A42G C70G | < 1e-05 s⁻¹ |  |  |  | < 1e-05 s⁻¹
9 | G7U G62U | < 1e-05 s⁻¹ | < 1e-05 s⁻¹ | < 1e-05 s⁻¹ | < 1e-05 s⁻¹ | 
10 | A48G U49C | < 1e-05 s⁻¹ | < 1e-05 s⁻¹ | < 1e-05 s⁻¹ | < 1e-05 s⁻¹ | < 1e-05 s⁻¹
11 | A14G C34U C68G | 0.000349 ± 0.00016 s⁻¹ |  |  |  | 5.07e-05 ± 2e-05 s⁻¹
12 | A6G G51C | < 1e-05 s⁻¹ | < 1e-05 s⁻¹ | < 1e-05 s⁻¹ | < 1e-05 s⁻¹ | 
13 | A39G G40C C67U | < 1e-05 s⁻¹ |  |  | < 1e-05 s⁻¹ | < 1e-05 s⁻¹
14 | C16A G35C | < 1e-05 s⁻¹ | < 1e-05 s⁻¹ | < 1e-05 s⁻¹ | < 1e-05 s⁻¹ | < 1e-05 s⁻¹
15 | C11U U30A A48G G59C A64G | < 1e-05 s⁻¹ |  |  | < 1e-05 s⁻¹ | < 1e-05 s⁻¹
16 | G9C G66A | < 1e-05 s⁻¹ |  | < 1e-05 s⁻¹ |  | < 1e-05 s⁻¹
17 | U54A C67A | 0.000554 ± 0.00013 s⁻¹ | 0.000242 ± 4.9e-05 s⁻¹ | 0.00148 ± 0.00034 s⁻¹ | 0.00137 ± 0.00037 s⁻¹ | 0.00561 ± 0.0016 s⁻¹
18 | A33U G43A | < 1e-05 s⁻¹ | < 1e-05 s⁻¹ | < 1e-05 s⁻¹ | < 1e-05 s⁻¹ | < 1e-05 s⁻¹
19 | C10G G40A | < 1e-05 s⁻¹ |  | < 1e-05 s⁻¹ | < 1e-05 s⁻¹ | < 1e-05 s⁻¹
